Assay [1] deals with Detergent-soluble HLA-DR2 purified from MGAR cells (DRB1*1501) (human).
Assay [2] deals with Detergent-soluble HLA-DR1 purified from LG-2 cells (DRB1*0101) (human).
In assay [3] the target is Detergent-soluble HLA-DR4 purified from Priess cells (DRB1*0401) (human).

pIC50, pKd: −log10 of the molar value.

As for “TAL terpolymer (SD-1691), poly[L-Tyr 0.102, L-Ala 0.542, L-Lys 0.353] (peptide)”, the negative logarithm of the IC50 (pIC50) in assay [1] was 5.57; in assay [2] it was 5.48. The substance also had a negative-log Kd (pKd) in assay [1] of 7.77.
“GTL terpolymer (SD-1697), poly[L-Tyr 0.162, L-Glu 0.259, L-Lys 0.579] (peptide)”: the values for the pIC50 in assay [3], in assay [1] and in assay [2] were 4.37, 4.60 and 4.37, respectively. Besides, the values for the pKd in assay [3] and in assay [2] were 8.10 and 8.40, respectively.
In the case of Copolymer 1 (peptide), the pIC50 in assay [3] is 4.97; in assay [1], 5.00; in assay [2], 5.06. Further, the pKd in assay [3] is 7.82; in assay [1] it was 7.09; in assay [2], 7.13.
Regarding “TGA terpolymer (SD-1690), poly[L-Tyr 0.136, L-Glu 0.21, L-Ala 0.648] (peptide)”, the pIC50 in assay [3] is 6.00; in assay [1] it was 5.02; in assay [2], 5.89. Moreover, the pKd in assay [3] was 8.10; in assay [1], 8.10; in assay [2], 8.00.
On to “GAL terpolymer (SD-1689), poly[L-Glu 0.153, L-Ala 0.479, L-Lys 0.365] (peptide)”, for which the negative-log IC50 (pIC50) in assay [3], in assay [1] and in assay [2] was more than 3.00 in each case. In addition, the pKd was 8.52 in assay [3] and 7.77 in assay [1].

The record behind these values is patent US20150030560A1.
